Laboratory results as given in the NTF2 design screens of Basanta et al. (2020).

Assay: protease stability score; higher = more stable; yeast display proteolysis, trypsin and chymotrypsin;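 further: log10 excess protease needed over predicted unfolded state with 0 meaning unfolded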

DEEEFKKHAEQVIRILEHGDPDQMKKNADPNAKIEVGDRTYHGHDRMREFVKRLRDRVDHMSVETWSAHNGRIHIHFRVDINGKDVRVVMQLTVDNGKIKRLRVKSG
protease stability score: 0.914

DEEAEHVARELQKAQETGNPKRARHMMDENARIQVGDHRIHGMSRYLEDLRRKQEEIRIEFKRVSHNVNGNRVVINFLAVYEVNGHPVHLRIQLSFEIHNGRAQTMDVNISEQQMRDIER
protease stability score: -0.022

DEELLRNLEEVFKKNNFSTLANLADKDATLIVGDKVYKGKQQVRDWANELDERIDHVSIHSIDNQGDTMVARMVLNVDGVNAEFTLSVEISNGRVQVISLKVTDDEVKDQISKMES
protease stability score: 0.953

DENELLKTFMDIFRRAIKTGDEKLLRTMMDKDVKARVGDKDVHGREEADKEFKKIWDHADHVDIKVKEVTINGDKAHVTMDAKFVVDGKSQKVNIHVKAEVKNGRLKAKHITMG
protease stability score: 2.03

DETAKKHFEELMKVWKHGDFRRAQELLDPNVRVVIGDQQFHGREDVAKKIAEHLHRMEVEIKDYRVKNDGEKIHIEVDAVFERNGRPERRRYVAVYRVHNGRFKEMSQQEDK
protease stability score: 1.05

DEREKEHVEEFLRNWEEGNQDNLMRLADPNVRLQIGDHEIHGREQLAKHVDDERKQMRVSMQIKSVDAHNGRIHIQAERESQHDGNPTKESLVITFVLRNGRIQEVSYKRQQ
protease stability score: 0.959

DETAQDLVTTLIEAWKTNDPDSVANLMDPNATVKIGDKSVHGKKQLEEMLKKLRDEMTIDIKRVDVKVNNGDAKVNARATFTHNGKPDSRTMSAEVEWNGDKVKEFRVHWEQ
protease stability score: 1

DKHAAQVVLEIMHAVDTGNENEVMKLIDPNARVEYGDKSITGREDIARHLIHDAKHINRRWSLKDIDVQGEKVFIKFEYKTNKNGRPDKADVNLEAKAHNGTVTTMRLQETR
protease stability score: 0.368

DEETAQKIVEKLATGDEEQKREQMDKDVTVVIGDKELRGRETIVNQLRKIRKQVDHLEVKTYSAHNGRAEIVMRMQVNGRTMEYSIRVQVHNGRIQHIKFRVRNHEVQELLDRLLS
protease stability score: 0.464

DEDANHRFKDQVRAIKTGDSKRVEELVDPNVHNHVGEWRVHGSTHWATLAKQVRDEMRVDLDIKSVENSGNKLNIDANVIIDHNGKPHRNQVNWNVNNHNGRIQEASAKKSN
protease stability score: -0.484

DEELQSQAERFLKNLQRGDETKLLQQMDPNAKMQYGDKTVHGRERLRTWVKHVKDEMRVQVDKFRQTVSGNHIRFDWDATFNINGTPDKIRIDVDIQVHNGRIKLITFRVSEEQTKRLHS
protease stability score: 0.371

EKSIVEFFKKWVTAQRDGDPRQHARYIDPNARLQVGDRVVNGREQAKDDQHKKRKEIKVDMRIKSISASNGTLEVNFREKVDVNGRPITREYRFRFEVRNGRITSLSNQVDKEEQKKLKK
protease stability score: 0.157

DDEQDAREFVKKFVDVMRENNPRELVKMADPNVKVDVGDHRLNGREDLERKRKREADRADHIDVKVTKLHVNGDTVQAHFSFTIRHDGRNERKSETIIARKHNGRVKIKSIKNS
protease stability score: -0.13

DERDADEIAKVFVHNNPKDIERMVDEDVRIIIGDFEVQGREEARKYAEQLEKHIDHNHVRDYRVEGNKVTLDVNVVVNGRSLTFVVHITMHNGHVKEIRVQFTSPEDQKVFKEVVG
protease stability score: 0.719

DTRVARLVQEIMENVKKGSKEHLKQMVDPNVKIRVGDKTFHGREDFVTHLMDERKEARVDYHLKDVKDEGDKAFADVVQHVDKNGQPRNRHFIIDARAENGRLKEMRIENTK
protease stability score: -0.3

DEDLLKQADRWVKNLTRGNFKDLQKLFPPDATVQYGDNHIHGMEKISHEWKKEQEEMRIRVDRVQNEHQGEKAVVDLHYKVTHNGKPEENVVILFIEKHNGHMIFMKIQKTG
protease stability score: 0.739

DEELKKTATEFNKALNQNDEKRLKTLADPNATFVVGDEVIHGMDHVNKHQHDLKRNLRISIDVRDMKNSGPQAHVNAQVVFEIDGRPRQVEINYIITYHNGKVKKVRVDMDPEQLKEIKK
protease stability score: 1.08

DEEDEARKMMEELDKAWKTGDSERYAQLLDPNARMVIGDKEYHGRDDVRKWFHEMLRRVDHVQLHLTSIDIRNGKVDARAEVRLNHNGKDTSDTVIFRLQHDNGHIKIRSVKNK
protease stability score: 0.251

DDKNRELLTEVLKARETGDPDRIHELLDPNVKVKVGNKTLRGRNEIAKWWKRQTDEMRIEESITHIDVHNGKARMEASARVEINGRPVTYTFIMKAVIHNGRVKEINIHIPEEKMQEVTQ
protease stability score: 0.948

DKTAAHVVHQFLRNVDTGDPKKASDNADPNVTINVGDKEIRGRENLQKEIDKQKKDWRQTVRVTSFKDHNGKVHVDARYTADVNGKPIDDTFQFEMQAHNGKLKYVNVQLDEDKKKEQDS
protease stability score: 0.032
